Among the data in the supplement of paper PMC10567573 are protein stability index values, retold here.

B1: ZNF263 (parent)
chain: KPYKCTLCGENFSHRSNLIRHQRI
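Note: lentivirally expressed fusions sorted by FACS into six bins by GFP to DsRed ratio, PSI derived from sequencing read proportions per bin multiplied by bin number.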

The variants in the series derive from B1. The series can be described thus: protein stability index of a GFP-peptide fusion (GPS, HEK-293T) (PSI 1-6); higher = more stable. To be noted: c terminus: a fixed tail appended.
As for KQYKCTLCGENFSHRSNLIRHQRI [P2Q], the protein stability index was 2.09.
The value for KMYKCTLCGENFSHRSNLIRHQRI [P2M] was 2.05; that for KRYKCTLCGENFSHRSNLIRHQRI [P2R] was 3.12.
The value for KYYKCTLCGENFSHRSNLIRHQRI [P2Y] was 2.14.
For the variant KTYKCTLCGENFSHRSNLIRHQRI [P2T], the protein stability index was found to be 2.53.
The value for KKYKCTLCGENFSHRSNLIRHQRI [P2K] was 2.92; that for KIYKCTLCGENFSHRSNLIRHQRI [P2I] was 2.33.
The value for KWYKCTLCGENFSHRSNLIRHQRI [P2W] was 2.05; that for KCYKCTLCGENFSHRSNLIRHQRI [P2C] was 2.02.
The same measure for KGYKCTLCGENFSHRSNLIRHQRI [P2G]: 2.77; for KFYKCTLCGENFSHRSNLIRHQRI [P2F]: 2.12.
On to KLYKCTLCGENFSHRSNLIRHQRI [P2L], for which the protein stability index was found to be 2.53.
The value for KVYKCTLCGENFSHRSNLIRHQRI [P2V] was 2.98.
The same measure for KHYKCTLCGENFSHRSNLIRHQRI [P2H]: 2.49.
Regarding KNYKCTLCGENFSHRSNLIRHQRI [P2N], the protein stability index stood at 2.49.
The same measure for KDYKCTLCGENFSHRSNLIRHQRI [P2D]: 2.3.
The value for KAYKCTLCGENFSHRSNLIRHQRI [P2A] was 2.7; that for KSYKCTLCGENFSHRSNLIRHQRI [P2S] was 2.59.
For KEYKCTLCGENFSHRSNLIRHQRI [P2E], the protein stability index worked out at 2.67.
The value for DPYKCTLCGENFSHRSNLIRHQRI [K1D] was 3.07; that for SPYKCTLCGENFSHRSNLIRHQRI [K1S] was 2.81.
The value for MPYKCTLCGENFSHRSNLIRHQRI [K1M] was 2.65.
The same measure for NPYKCTLCGENFSHRSNLIRHQRI [K1N]: 2.12.
For EPYKCTLCGENFSHRSNLIRHQRI [K1E], the protein stability index stood at 3.25.
The same measure for VPYKCTLCGENFSHRSNLIRHQRI [K1V]: 1.56.
The same measure for TPYKCTLCGENFSHRSNLIRHQRI [K1T]: 2.08.
The same measure for HPYKCTLCGENFSHRSNLIRHQRI [K1H]: 2.47.
As to GPYKCTLCGENFSHRSNLIRHQRI [K1G], the protein stability index came to 2.27.
The same measure for PPYKCTLCGENFSHRSNLIRHQRI [K1P]: 3.08; for LPYKCTLCGENFSHRSNLIRHQRI [K1L]: 2.25.
The same measure for RPYKCTLCGENFSHRSNLIRHQRI [K1R]: 2.66; for APYKCTLCGENFSHRSNLIRHQRI [K1A]: 2.19.
The value for FPYKCTLCGENFSHRSNLIRHQRI [K1F] was 2.56.
As for YPYKCTLCGENFSHRSNLIRHQRI [K1Y], the protein stability index amounted to 2.69.
Turning to WPYKCTLCGENFSHRSNLIRHQRI [K1W], the protein stability index stood at 1.92.
On to QPYKCTLCGENFSHRSNLIRHQRI [K1Q], for which the protein stability index was 2.38.
For CPYKCTLCGENFSHRSNLIRHQRI [K1C], the protein stability index came to 2.67.
The value for IPYKCTLCGENFSHRSNLIRHQRI [K1I] was 2.16.
Regarding KPTKCTLCGENFSHRSNLIRHQRI [Y3T], the protein stability index came to 2.4.
The value for KPWKCTLCGENFSHRSNLIRHQRI [Y3W] was 2.42; that for KPPKCTLCGENFSHRSNLIRHQRI [Y3P] was 1.85; that for KPGKCTLCGENFSHRSNLIRHQRI [Y3G] was 1.84.
The value for KPAKCTLCGENFSHRSNLIRHQRI [Y3A] was 1.9; that for KPIKCTLCGENFSHRSNLIRHQRI [Y3I] was 1.55.
The same measure for KPEKCTLCGENFSHRSNLIRHQRI [Y3E]: 1.78.
As to KPHKCTLCGENFSHRSNLIRHQRI [Y3H], the protein stability index was 1.34.
On to KPDKCTLCGENFSHRSNLIRHQRI [Y3D], for which the protein stability index worked out at 1.84.
The value for KPVKCTLCGENFSHRSNLIRHQRI [Y3V] was 2.28; that for KPLKCTLCGENFSHRSNLIRHQRI [Y3L] was 2.64; that for KPMKCTLCGENFSHRSNLIRHQRI [Y3M] was 1.73.
The value for KPNKCTLCGENFSHRSNLIRHQRI [Y3N] was 2.47; that for KPCKCTLCGENFSHRSNLIRHQRI [Y3C] was 2.47; that for KPKKCTLCGENFSHRSNLIRHQRI [Y3K] was 3.17.
The same measure for KPRKCTLCGENFSHRSNLIRHQRI [Y3R]: 3.54; for KPSKCTLCGENFSHRSNLIRHQRI [Y3S]: 2.11; for KPQKCTLCGENFSHRSNLIRHQRI [Y3Q]: 2.14.
KPFKCTLCGENFSHRSNLIRHQRI [Y3F]: the protein stability index is 2.23.
On to KPYKHTLCGENFSHRSNLIRHQRI [C5H], for which the protein stability index turned out to be 2.34.
The value for KPYKFTLCGENFSHRSNLIRHQRI [C5F] was 1.45; that for KPYKRTLCGENFSHRSNLIRHQRI [C5R] was 1.86; that for KPYKGTLCGENFSHRSNLIRHQRI [C5G] was 2.22.
The value for KPYKTTLCGENFSHRSNLIRHQRI [C5T] was 2.09; that for KPYKETLCGENFSHRSNLIRHQRI [C5E] was 2.19.
The same measure for KPYKWTLCGENFSHRSNLIRHQRI [C5W]: 1.61.
For KPYKSTLCGENFSHRSNLIRHQRI [C5S], the protein stability index is 2.43.
The same measure for KPYKATLCGENFSHRSNLIRHQRI [C5A]: 2.52; for KPYKLTLCGENFSHRSNLIRHQRI [C5L]: 2.47; for KPYKMTLCGENFSHRSNLIRHQRI [C5M]: 1.67.
The value for KPYKDTLCGENFSHRSNLIRHQRI [C5D] was 2.69; that for KPYKKTLCGENFSHRSNLIRHQRI [C5K] was 2.44; that for KPYKNTLCGENFSHRSNLIRHQRI [C5N] was 2.41.
Take KPYKQTLCGENFSHRSNLIRHQRI [C5Q]: the protein stability index is 3.12.
The same measure for KPYKITLCGENFSHRSNLIRHQRI [C5I]: 1.75; for KPYKVTLCGENFSHRSNLIRHQRI [C5V]: 2.06.
In the case of KPYKPTLCGENFSHRSNLIRHQRI [C5P], the protein stability index was found to be 2.44.
The value for KPYLCTLCGENFSHRSNLIRHQRI [K4L] was 1.84.
The same measure for KPYFCTLCGENFSHRSNLIRHQRI [K4F]: 2.01; for KPYPCTLCGENFSHRSNLIRHQRI [K4P]: 1.96.
The value for KPYQCTLCGENFSHRSNLIRHQRI [K4Q] was 2.48; that for KPYACTLCGENFSHRSNLIRHQRI [K4A] was 2.32.
As for KPYSCTLCGENFSHRSNLIRHQRI [K4S], the protein stability index worked out at 1.9.
The value for KPYRCTLCGENFSHRSNLIRHQRI [K4R] was 2.54; that for KPYICTLCGENFSHRSNLIRHQRI [K4I] was 2.87.
As for KPYMCTLCGENFSHRSNLIRHQRI [K4M], the protein stability index is 2.23.
For KPYYCTLCGENFSHRSNLIRHQRI [K4Y], the protein stability index turned out to be 2.16.
The same measure for KPYCCTLCGENFSHRSNLIRHQRI [K4C]: 1.7; for KPYWCTLCGENFSHRSNLIRHQRI [K4W]: 2.35.
The same measure for KPYNCTLCGENFSHRSNLIRHQRI [K4N]: 1.94.
The same measure for KPYECTLCGENFSHRSNLIRHQRI [K4E]: 2.35.
With KPYGCTLCGENFSHRSNLIRHQRI [K4G], the protein stability index stood at 2.35.
The same measure for KPYVCTLCGENFSHRSNLIRHQRI [K4V]: 2.87; for KPYTCTLCGENFSHRSNLIRHQRI [K4T]: 2.52; for KPYHCTLCGENFSHRSNLIRHQRI [K4H]: 2.95.
The same measure for KPYDCTLCGENFSHRSNLIRHQRI [K4D]: 1.75.
